Data as given in FireProtDB (doi:10.1021/bi00177a023).

B1: Guanyl-specific ribonuclease T1, P00651 (parent)
chain: MMYSKLLTLTTLLLPTALALPSLVERACDYTCGSNCYSSSDVSTAQAAGYQLHEDGETVGSNSYPHKYNNYEGFDFSVSSPYYEWPILSSGDVYSGGSPGADRVVFNENNQLAGVITHTGASGNNFVECT

Variants of: B1
Settings: Aspergillus oryzae (strain ATCC 42149 / RIB 40); pH 5; Thermal; DSC; Sodium borate-NaOH 10 mM; NaCl 80 mM; reversible: yes; structure 1RN1; whole UniProt chain shown

Variant | Tm [°C] | heat capacity change of unfolding [kcal/mol/K] | unfolding enthalpy (calorimetric) [kcal/mol] | unfolding enthalpy (van 't Hoff) [kcal/mol]
Q51K | 61.2 | 1.14 | 122 | 115

Same assay, conditions: Aspergillus oryzae (strain ATCC 42149 / RIB 40); pH 6; Thermal; DSC; Sodium borate-NaOH 10 mM; NaCl 80 mM; reversible: yes; structure 1RN1; whole UniProt chain shown

Variant | Tm [°C] | heat capacity change of unfolding [kcal/mol/K] | unfolding enthalpy (calorimetric) [kcal/mol] | unfolding enthalpy (van 't Hoff) [kcal/mol]
Q51K | 56.9 | 0.99 | 112 | 110

Same assay, conditions: Aspergillus oryzae (strain ATCC 42149 / RIB 40); pH 6.5; Thermal; DSC; Sodium borate-NaOH 10 mM; NaCl 80 mM; reversible: yes; structure 1RN1; whole UniProt chain shown

Variant | Tm [°C] | heat capacity change of unfolding [kcal/mol/K] | unfolding enthalpy (calorimetric) [kcal/mol] | unfolding enthalpy (van 't Hoff) [kcal/mol]
Q51K | 54 | 1.19 | 109 | 109

Same assay, conditions: Aspergillus oryzae (strain ATCC 42149 / RIB 40); pH 8.6; Thermal; DSC; Sodium borate-NaOH 10 mM; NaCl 80 mM; reversible: yes; structure 1RN1; whole UniProt chain shown

Variant | Tm [°C] | heat capacity change of unfolding [kcal/mol/K] | unfolding enthalpy (calorimetric) [kcal/mol] | unfolding enthalpy (van 't Hoff) [kcal/mol]
Q51K | 46.6 | 1.15 | 97.6 | 102

Same assay, conditions: Aspergillus oryzae (strain ATCC 42149 / RIB 40); pH 9.7; Thermal; DSC; Sodium borate-NaOH 10 mM; NaCl 80 mM; reversible: yes; structure 1RN1; whole UniProt chain shown

Variant | Tm [°C] | heat capacity change of unfolding [kcal/mol/K] | unfolding enthalpy (calorimetric) [kcal/mol] | unfolding enthalpy (van 't Hoff) [kcal/mol]
Q51K | 44 | 1.38 | 94 | 105
